Data set [1] has as its target T1, FXIIIa (Homo sapiens, UniProt P00488).
T1 construct: purchased American Diagnostica
T1 sequence (P00488 39-732 limits assumed): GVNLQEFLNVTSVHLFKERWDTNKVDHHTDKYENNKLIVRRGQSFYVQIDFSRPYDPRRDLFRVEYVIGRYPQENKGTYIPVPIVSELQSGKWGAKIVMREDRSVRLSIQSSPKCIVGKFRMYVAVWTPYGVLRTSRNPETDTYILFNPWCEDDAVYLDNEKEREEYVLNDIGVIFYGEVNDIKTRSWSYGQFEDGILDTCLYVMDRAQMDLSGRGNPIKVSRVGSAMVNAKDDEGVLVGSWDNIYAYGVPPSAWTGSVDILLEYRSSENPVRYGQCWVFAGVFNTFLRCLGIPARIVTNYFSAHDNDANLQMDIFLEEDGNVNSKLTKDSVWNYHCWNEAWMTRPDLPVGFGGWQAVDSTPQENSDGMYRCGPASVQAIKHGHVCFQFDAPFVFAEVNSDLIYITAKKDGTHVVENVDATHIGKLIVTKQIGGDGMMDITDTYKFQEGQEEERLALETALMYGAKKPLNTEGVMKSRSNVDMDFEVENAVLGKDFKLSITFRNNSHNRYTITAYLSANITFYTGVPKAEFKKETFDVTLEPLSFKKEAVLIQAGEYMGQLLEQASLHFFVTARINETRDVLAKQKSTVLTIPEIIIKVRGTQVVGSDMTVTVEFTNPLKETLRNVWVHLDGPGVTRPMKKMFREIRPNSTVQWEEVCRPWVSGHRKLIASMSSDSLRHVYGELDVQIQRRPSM
The data set is described as follows: Crosslinking of α2AP1-24 and variant peptides to fibrin clots. The conditions noted are these: 0.5 mM of each peptide clotted with human fibrinogen; compared to wild type α2AP1-24. It is filed as biochemical. How it is done:
A 0.5 mM concentration of each peptide was clotted with human fibrinogen. After electrophoresis of the solubilized, reduced clots on 7.5% SDS-PAGE gels and transfer to PVDF membranes, the extent of crosslinking of each peptide was determined by incubating the membranes with a polyclonal antibody directed against the amino-terminus of α2AP, followed by incubation in ^125I-protein A, and exposure in a phosphorimager. Each bar reflects phosphorimage quantification of the fibrin crosslinking α2AP1-24 and the variant peptides. The mean±SD pixel volume of the quantified blots are shown.
(§1) Experiments were performed to determine how long FXIIIa in clots could crosslink various substrates such as human ^125I -α2AP, α2AP13-24 (SEQ ID NO:2), and 5-(biotinamido)pentylamine, into fibrin. In a typical experiment, clots were prepared (50 μl final volume) in duplicate by combining fibrinogen (2 mg/ml final), CaCl2 (2 mM final), buffer (Tris-buffered saline pH 7.4) and thrombin (1 U/ml) and incubating at 37° C. Synchronous with the addition of thrombin, or up to 240 minutes afterwards, the FXIIIa substrates 5-(biotinamido)pentylamine (0.5 mM final), ^125I -α2AP (70 μg/ml final), and α2AP13-24 (0 to 1 mM final) were mixed and added to the clot. In one set of control samples, FXIIIa was inhibited with iodoacetamide (10 mg/ml) prior to the addition of substrate; to another set, no substrate was added. After 2 hours of incubation at 37° C., iodoacetamide (10 mg/ml) was added to stop the reaction. The tubes were then centrifuged at 14,000 rpm for 2 minutes, washed and compressed in 1 ml saline to remove unbound proteins, and centrifuged again at 14,000 rpm for 2 minutes. After removal of the supernatant, the clots were solubilized in 100 μL of 9M urea, pH 9.0 at 37° C. for 60 minutes. Then 100 μl of SDS reducing sample buffer was added and the clots were placed at 85° C. for 30 minutes until fully solubilized. The samples were examined by SDS-PAGE. Crosslinked ^125I-α2AP was detected and quantitated by phosphorimaging. Samples containing crosslinked α2AP13-24 and pentylamine substrates were electroblotted to PVDF membranes and detected by ^125I-streptavidin followed by phosphorimaging or by streptavidin-peroxidase followed by the developing agents 5-bromo-4-chloro-3-indolyl phosphate-nitro blue tetrazolium using methods known in the art. In experiments examining the effect of specific amino acid residues on the crosslinking of the α2AP13-24 peptide (SEQ ID NO:2) to fibrin, crosslinking was detected by immunoblotting with an anti-peptide antibody directed against this epitope followed by ^125I-protein A and phosphorimaging. In some experiments, clots were formed by mixing 25 μl pooled human fresh frozen plasma with 25 μl 30 mM CaCl2 instead of using human fibrinogen.
Although FXIIIa can crosslink a number of lysine analogs to glutamine sites in macromolecules such as fibrin, its specificity for crosslinking glutamine-containing substrates (acyl donors) such as α2AP to fibrin has not been defined. To examine specificity, a wild-type α2AP fragment spanning residues 1-24 (MEPLGWQLTSGPNQEQVSPLTLLK; SEQ ID NO:16) and a panel of α2AP variant peptides (corresponding to residues 1-24 with the exception that one residue is altered from the wild type sequence; SEQ ID NO:11, 12, 13, 14, 15) was created with mutations of residues that represented other potential crosslinking sites or residues that are conserved among different α2APS from different species. […]

Data set [2] concerns the target T1, FXIIIa. The experiment in a line: Variant peptides as inhibitors of the crosslinking of α2AP13-24 into fibrin. The data set is classed as biochemical. The conditions noted are these: peptides used as inhibitors. How it is done: (§2) Experiments were performed to determine how long FXIIIa in clots could crosslink various substrates such as human ^125I -α2AP, α2AP13-24 (SEQ ID NO:2), and 5-(biotinamido)pentylamine, into fibrin. In a typical experiment, clots were prepared (50 μl final volume) in duplicate by combining fibrinogen (2 mg/ml final), CaCl2 (2 mM final), buffer (Tris-buffered saline pH 7.4) and thrombin (1 U/ml) and incubating at 37° C. Synchronous with the addition of thrombin, or up to 240 minutes afterwards, the FXIIIa substrates 5-(biotinamido)pentylamine (0.5 mM final), ^125I -α2AP (70 μg/ml final), and α2AP13-24 (0 to 1 mM final) were mixed and added to the clot. […] Crosslinked ^125I-α2AP was detected and quantitated by phosphorimaging. Samples containing crosslinked α2AP13-24 and pentylamine substrates were electroblotted to PVDF membranes and detected by ^125I-streptavidin followed by phosphorimaging or by streptavidin-peroxidase followed by the developing agents 5-bromo-4-chloro-3-indolyl phosphate-nitro blue tetrazolium using methods known in the art. In experiments examining the effect of specific amino acid residues on the crosslinking of the α2AP13-24 peptide (SEQ ID NO:2) to fibrin, crosslinking was detected by immunoblotting with an anti-peptide antibody directed against this epitope followed by ^125I-protein A and phosphorimaging. […]

For data set [3], the target named is T1, FXIIIa. The experiment in a line: Dose-dependent crosslinking of α2AP13-24 into fibrin clots. The data set is classed as biochemical. The conditions noted are these: purified human fibrinogen. Here is the method: as §2
In data set [4] the target is T1, FXIIIa. The experiment in a line: FXIIIa catalytic half-life: crosslinking of substrates into fibrin clots of various ages. The data set is classed as biochemical. Here is the method:
as §1, with “In some experiments, clots were formed by mixing 25 μl pooled human fresh frozen plasma with 25 μl 30 mM CaCl2 instead of using human fibrinogen.” left out

Data set [5] in a line: Activated partial thromboplastin time in heparinized ferrets. The data set is classed as in vivo, ferret. The conditions noted are these: heparin bolus 100 units/kg, throughout the experiment. Here is the method:
All animals received weight-adjusted heparin at 100 units/kg (bolus), a dose sufficient to keep the activated partial thromboplastin time (aPTT) above 150 seconds throughout the procedure. TPA was given as a continuous infusion over 2 hours (1 mg/kg in 5 ml of normal saline). […] The thorax was dissected and all intrathoracic structures were removed for gamma counting to detect residual thrombi. The percentage of clot lysis was determined for each ferret by dividing the total residual radioactivity in the thorax by that in the initial thrombi. A total of 28 animals was studied; three were excluded because of anesthetic-related death, improper TPA infusion, and failed embolism.

Another data set has as its system pulmonary emboli. The data set is described as follows: Lysis of radiolabeled pulmonary emboli in ferrets. The data set is classed as in vivo, ferret. The source says: Pulmonary embolisms were induced in ferrets using standard methods, e.g., that described in Butte et al., 1997, Circulation. 95:1886-1891). Male ferrets (weighing approximately 1 kg) were anesthetized with ketamine and acepromazine. After full anesthesia had been obtained, the jugular vein and carotid artery were exposed by an anterior midline incision and cannulated with 20G catheters. Pooled, citrated human plasma was mixed with ^125I-fibrinogen to achieve a specific activity of approximately 1,000,000 cpm/ml. Individual clots were formed by mixing ^125I-fibrinogen-labeled plasma (45 μl) with 2.5 μl of bovine thrombin (100 units/ml) and 2.5 μl of calcium chloride (0.4 M). […] The radioactive content of the clots was measured in a gamma counter immediately before injection. […] Successful embolization was evinced by the accumulation of radioactivity in the thorax.
All animals received weight-adjusted heparin at 100 units/kg (bolus), a dose sufficient to keep the activated partial thromboplastin time (aPTT) above 150 seconds throughout the procedure. […] The percentage of clot lysis was determined for each ferret by dividing the total residual radioactivity in the thorax by that in the initial thrombi. […]

Another data set has as its system fibrinogen. The data set is described as follows: Residual fibrinogen level by sodium sulfite method. The conditions noted are these: ferrets, before and after treatment. It is filed as in vivo, ferret. How it is done:
FIG. 2 is a bar graph showing the effects of factor XIIIa activity and TPA on residual fibrinogen levels. Fibrinogen levels were measured in 25 ferrets by sodium sulfite precipitation and expressed as a percentage of the fibrinogen level prior to the experiments (“before study” level was defined as 100%). The percent residual fibrinogen level (mean±SD) is shown for each group of 5 ferrets at the end of the experiment. The following conditions were evaluated: Control, normal factor XIIIa activity, no TPA; F13-I, factor XIIIa inhibited, no TPA; TPA, TPA with normal factor XIIIa activity; TPA+F13-I, TPA with inhibited factor XIIIa activity; TPA+α2AP-I, TPA with inhibited α2 antiplasmin-fibrin crosslinking.
Blood samples were collected on K3EDTA (0.15% solution, final concentration) with aprotinin (50 kallikrein units/ml). Platelet-poor plasma was obtained by centrifugation of whole blood and assayed for fibrinogen by a standard sodium sulfite method such as that described by Rampling et al. 1976, Clin Chim Acta. 67:43-52.

Several values for one entry are separate records, joined by “and”; a condition that tells them apart may be missing. Identical values can stand only once.

For “MEPLGWQLTSGPNQEQVSPLTNLK (listed as Homo sapiens) [L22N, α2AP1-24 variant peptide]”, the “crosslinking of peptide to fibrin” value with FXIIIa [1] is listed as “crosslinked into fibrin at rates comparable to that of the wild type”.

For the compound “MEPLGWQLTSGPNQEAVSPLTLLK (listed as Homo sapiens) [Q16A, α2AP1-24 variant peptide]”, the “crosslinking of peptide to fibrin” value with FXIIIa [1] is “crosslinked into fibrin at rates comparable to that of the wild type”.

Regarding “Q14A: α2AP1-24 variant peptide containing mutation Q14A (MEPLGWQLTSGPNAEQVSPLTLLK; listed as Homo sapiens)”, in the data set with FXIIIa [1], the “crosslinking of peptide to fibrin” value was “not efficiently crosslinked to fibrin”. Moreover, the “competition for crosslinking of α2AP13-24 into fibrin” value in the data set with FXIIIa [2] was “all peptides but Q14A and V17N competed for crosslinking”.

Regarding “V17N: α2AP1-24 variant peptide containing mutation V17N (MEPLGWQLTSGPNQEQNSPLTLLK; listed as Homo sapiens)”, the “crosslinking of peptide to fibrin” value in the data set with FXIIIa [1] is on record as “not efficiently crosslinked to fibrin”. Further, the “competition for crosslinking of α2AP13-24 into fibrin” value in the data set with FXIIIa [2] was “all peptides but Q14A and V17N competed for crosslinking”.

As to hirudin [reference compound], the “effect on α2AP13-24 peptide-fibrin crosslinking” value on FXIIIa [3] was “blocked α2AP13-24 peptide-fibrin crosslinking”.

For the compound “MEPLGWQLTS GPNQAQVSPL TLLK (MEPLGWQLTSGPNQAQVSPLTLLK; listed as Homo sapiens) [E15A, α2AP1-24 variant peptide]”, in the data set with FXIIIa [1], the “crosslinking of peptide to fibrin” value is recorded as “crosslinked into fibrin at rates comparable to that of the wild type”.

With `O[C@H](CS)[C@H](O)CS` (racemic) [DTT, dithiothreitol], the “effect of reducing agent on crosslinking in old clots” value on FXIIIa [4] (added to reaction mixtures, 2 or 4 hour old clots) was “restored the crosslinking of pentylamine or α2AP13-24 to fibrin clots”.

Turning to heparin, the “activated partial thromboplastin time (aPTT)” value in data set [5] is listed as “above 150 seconds”.

As to tissue plasminogen activator [TPA], in the data set with pulmonary emboli (FIGS. 1A and 1B group comparisons), the “lysis of pulmonary emboli compared with other group” value was “significantly increased lysis”. Besides, the “lysis of pulmonary emboli (mean±SD)” value in the data set with pulmonary emboli (TPA 1 mg/kg infused over 2 hours, heparin 100 units/kg, 4 hours after embolization) is 32.3±7.7% and 32.2±7.7%. Besides, in the data set with fibrinogen, the “residual fibrinogen level at end of study, percentage of initial value” is given as “nonspecific degradation of fibrinogen did not occur”.

Regarding `NCCCCCNC(=O)CCCC[C@@H]1SC[C@@H]2NC(=O)N[C@@H]21` [pentylamine-biotin, 5-(biotinamido)pentylamine], the “residual FXIIIa crosslinking of substrate” value at FXIIIa [4] (substrate added to 2 or 4 hour old clots) is listed as “little residual FXIIIa crosslinking”.

For the origin of these results see patent publication US6534035B1, “Methods of inhibiting clot formation” (President and Fellows of Harvard College, priority 1998, dated 2003).
